Measured values as given in patent US20180002445A1 (published 2018).
Blank lines part the entries; values can stand above or below the binder they belong to.

Tests used:
human SOD1 = target: T1, human SOD1 (human, UniProt P00441 2-154); experiment: heading of the sequence table; ELISA selection
T1 construct: Target of the ELISA by which the clones were selected; also called Cu/ZnSOD; superoxide dismutase

[1] = target: T2, membranous SOD of human tumor cells (MKN-45 gastric carcinoma, SHEP neuroblastoma) (human, UniProt P00441 2-154); experiment: cell-based or functional assay
T2 sequence (P00441 2-154): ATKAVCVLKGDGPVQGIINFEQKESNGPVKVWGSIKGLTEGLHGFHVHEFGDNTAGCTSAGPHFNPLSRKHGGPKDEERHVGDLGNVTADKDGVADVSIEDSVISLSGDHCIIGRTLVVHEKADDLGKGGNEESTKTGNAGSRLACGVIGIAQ

[2] = target: T3, membranous catalase of human tumor cells (MKN-45 gastric carcinoma, SHEP neuroblastoma) (human, UniProt P04040 2-527); experiment: cell-based or functional assay
T3 sequence (looked up): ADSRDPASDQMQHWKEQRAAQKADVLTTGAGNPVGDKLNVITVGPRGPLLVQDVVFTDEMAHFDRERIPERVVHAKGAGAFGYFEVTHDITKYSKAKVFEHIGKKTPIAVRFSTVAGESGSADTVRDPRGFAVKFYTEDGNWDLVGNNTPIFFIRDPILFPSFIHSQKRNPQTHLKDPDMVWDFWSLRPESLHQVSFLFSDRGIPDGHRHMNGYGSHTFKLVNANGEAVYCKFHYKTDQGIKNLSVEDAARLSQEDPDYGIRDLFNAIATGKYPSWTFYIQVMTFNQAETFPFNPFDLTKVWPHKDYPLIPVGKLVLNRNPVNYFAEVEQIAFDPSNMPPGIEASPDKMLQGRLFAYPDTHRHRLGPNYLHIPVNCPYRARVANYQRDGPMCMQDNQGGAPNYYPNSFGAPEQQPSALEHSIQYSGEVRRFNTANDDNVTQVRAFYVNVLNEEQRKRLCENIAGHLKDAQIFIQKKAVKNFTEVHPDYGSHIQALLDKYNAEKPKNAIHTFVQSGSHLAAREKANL

[3] = target: T2, membranous SOD of human tumor cells …; experiment: cell-based or functional assay; remark: listed apart in the source
human catalase = target: T4, human catalase (human, UniProt P04040 2-527); experiment: heading of the sequence table; ELISA selection
T4 construct: Target of the ELISA by which the clones were selected
T4 sequence (looked up): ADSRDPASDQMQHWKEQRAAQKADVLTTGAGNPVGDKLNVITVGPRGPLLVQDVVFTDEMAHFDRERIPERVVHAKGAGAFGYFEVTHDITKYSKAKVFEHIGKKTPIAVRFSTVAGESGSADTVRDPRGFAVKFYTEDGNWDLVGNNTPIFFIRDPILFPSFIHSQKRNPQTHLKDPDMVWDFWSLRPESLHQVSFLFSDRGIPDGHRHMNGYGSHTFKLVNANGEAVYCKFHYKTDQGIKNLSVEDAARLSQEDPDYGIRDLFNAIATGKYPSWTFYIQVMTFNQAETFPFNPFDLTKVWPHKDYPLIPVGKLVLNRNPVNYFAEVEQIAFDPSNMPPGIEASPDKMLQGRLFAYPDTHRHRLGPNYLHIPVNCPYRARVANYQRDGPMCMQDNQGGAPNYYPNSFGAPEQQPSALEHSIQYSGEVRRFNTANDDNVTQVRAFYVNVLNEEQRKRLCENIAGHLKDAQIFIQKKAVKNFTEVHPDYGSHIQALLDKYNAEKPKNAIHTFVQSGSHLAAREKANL

T1 sequence (P00441 2-154 limits assumed): as the sequence (P00441 2-154) above

binding result (human SOD1): binds
B1: aSODcb0987 (VHH)
VHH: QVQLVESGGGIVQPGGSLRLSCVASESISEIDAMYWHRQAPGKERELVAGITNDGTRYYADSVKGRFTISRDNAKSTLYLQMNSLKFEDTAMYYCAALPNPPPGYWGQGTQVTVSS
notes: Recombinant alpaca single domain VHH fragment against human SOD1

concentration required for apoptosis induction in SHEP cells, against the neutralizing single domain VHH fragment [1]: 1e+06 fold
B2: aSODcb0991 (VHH)
VHH: QVQLVESGGGIVQPGGSLRLSCVASESISDIDAMYWHRQAPGKRRELVAGITNDGTEYFADSVKGRFAISRDNTKSSLYLQMNSLKLEDTAMYYCATLPNPPPGYWGQGTQVTVSS

relation (molar basis) (against aCATaSOD) [2]: 1420 fold
relation to opt. conc. hybrid Fab (against aCATaSOD) [2]: 708 fold
B3: aCATcb0972 (VHH)
VHH: QVQLVESGGGLVQAGGSLRLSCAASERTFNTYGMGWFRQAPGKEREFVATISWSGDSTYYADSVKGRFTISRDNAKNTMYLQMNSLKPEDTAVYYCNANSEYGDSYWGQGTQVTVSS

relation (molar basis) (against aCATaSOD) [3]: 2920 fold
relation to opt. conc. hybrid Fab (against aCATaSOD) [3]: 1460 fold
B4: aSODcb0989 (VHH)
VHH: QVQLVESGGGLVQSGGSLTLSCTASGFTISNYPMTWVRQAPGKGLEWVSRINSGGDRTLYADSVKGRFTVSRDNARNTMYLQMNNLKPEDTGLYFCADSGAGWRYWGQGTQVTVSS

binding result (human catalase): binds
B5: aCATcb0975 (VHH)
VHH: QVQLVESGGGLVQPGGSLRLSCAASASIFSIYVMAWYRQAPGKQRELVATVTSGGATNYANSVKGRFTISRDNAKNTMDLQMNSLKPEDTAVYYCNAEDYYDYGLSRSKIYWGQGTQVTVSS
notes: Recombinant alpaca single domain VHH fragment against human catalase

binding result (human catalase): binds
B6: aCATcb0973 (VHH)
VHH: EVQLVESGGGLVQPGGSLRLSCAVSGFIFNTYSMRWGRQAPGKGLEWVSSISTGGYSTYADSVKGRFTISRDNAKNLVYLQMNSLKPEDTAVYYCGWGAFVRGERPQGQGTQVTVSS
notes: as for B5

binding result (human catalase): binds
B7: aCATcb0974 (VHH)
VHH: QVQLVESGGGLVQPGGSLRLSCAASGSIFSIASMGWYRQAPGKQRDLVATITSDGSTKYADSVKGRFTISRDNAKNTMYLQMNSVKPEDAAVYYCNADADDLEPGSYDYDYWGQGTQVTVSS
notes: Recombinant alpaca single domain VHH fragment against human catalase; also called aCATcb9074
